From patent US20040161776A1 come the findings set out here.

“And” between values parts separate entries of the source, which are not always exact repeats. Equal entries are not always repeated.

The target of experiment [1] is prostate specific membrane antigen (PSMA), full-length human (human) (UniProt Q04609). Put plainly: average, PSMA-3T3 cells.
Experiment [2] shares this target. Put plainly: radiolabeled mAb bound to PSMA-3T3 cell pellets.
Experiment [3] has the same target.
For experiment [4] the target is unchanged. Put plainly: fraction of 177Lu labeled control antibody bound to cells, column PSMA; column 3T3 (no PSMA): 0.7.
Experiment [5] shares this target. Put plainly: competition on PSMA-3T3 cells; unmodified mJ591 varied, competitor 111In radiolabeled 4.40.
The target is the same in experiment [6]. Put plainly: fraction of 177Lu labeled antibody bound to cells, column PSMA; column 3T3 (no PSMA): 1.7.

Chain of prostate specific membrane antigen (PSMA), full-length human (human) (Q04609 whole entry): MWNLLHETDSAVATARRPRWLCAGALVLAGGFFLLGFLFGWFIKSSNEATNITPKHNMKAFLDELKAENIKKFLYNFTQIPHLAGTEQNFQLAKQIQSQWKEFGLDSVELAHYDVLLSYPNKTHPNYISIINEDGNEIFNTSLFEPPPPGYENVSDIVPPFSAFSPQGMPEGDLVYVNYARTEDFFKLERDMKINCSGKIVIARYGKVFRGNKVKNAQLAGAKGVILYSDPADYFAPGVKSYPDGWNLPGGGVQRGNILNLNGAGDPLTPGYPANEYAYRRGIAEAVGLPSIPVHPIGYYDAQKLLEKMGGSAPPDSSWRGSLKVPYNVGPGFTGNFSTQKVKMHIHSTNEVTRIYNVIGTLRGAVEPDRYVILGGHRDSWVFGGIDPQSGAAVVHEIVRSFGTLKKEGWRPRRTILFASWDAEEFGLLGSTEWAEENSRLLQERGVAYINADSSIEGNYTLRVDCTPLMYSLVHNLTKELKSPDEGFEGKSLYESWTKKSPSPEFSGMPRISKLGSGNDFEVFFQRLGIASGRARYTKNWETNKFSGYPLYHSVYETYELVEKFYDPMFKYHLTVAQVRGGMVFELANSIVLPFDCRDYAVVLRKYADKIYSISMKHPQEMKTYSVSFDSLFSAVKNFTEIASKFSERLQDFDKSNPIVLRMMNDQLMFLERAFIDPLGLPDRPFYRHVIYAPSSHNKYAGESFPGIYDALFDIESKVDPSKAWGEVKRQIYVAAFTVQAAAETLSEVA
Chain of mJ591 (antibody) (VH): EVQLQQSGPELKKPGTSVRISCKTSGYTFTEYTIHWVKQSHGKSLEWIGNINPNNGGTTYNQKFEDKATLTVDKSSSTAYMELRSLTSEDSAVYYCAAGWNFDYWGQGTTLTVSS
Chain of mJ591 (antibody) (VL): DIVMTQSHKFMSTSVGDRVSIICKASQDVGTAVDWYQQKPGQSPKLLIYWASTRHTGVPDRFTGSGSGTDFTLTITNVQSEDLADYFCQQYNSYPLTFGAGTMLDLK

In the case of “111In radiolabeled CHX-A''-DTPA antibody mJ591”, the Immunoreactivity (%) in experiment [1] is 56.7%; in experiment [2], 58.5% and 54.9%.

As to IgG (antibody), the PSMA+/PSMA- Ratio of tumor uptake, Mean in experiment [3] worked out at 1.16. The substance further registered a Cell Based Immunoreactivity (%) in experiment [4] of 5.9%.

Turning to mAb J591 (murine) (antibody), in experiment [5], the IC50 (read off the curve) worked out at 3 nM.

mJ591 (antibody): the Cell Based Immunoreactivity (%) in experiment [6] is 46.2%. Moreover, the PSMA+/PSMA- Ratio of tumor uptake, Mean in experiment [3] stood at 2.5.
